Substitutions are numbered along the chain they refer to.

For orientation: Kd means the constant that tells how readily two partners part at equilibrium.

Assay [1] addresses T1, human FcγRIIaR extracellular domain, C-terminal His-tag (human, UniProt P12318 34-217).
T1 construct: Soluble extracellular domain expressed in FreeStyle 293 cells; also called FcgRIIaR; human FcγRIIa (type R); not shown: His-tag added to the C-terminus
T1 chain: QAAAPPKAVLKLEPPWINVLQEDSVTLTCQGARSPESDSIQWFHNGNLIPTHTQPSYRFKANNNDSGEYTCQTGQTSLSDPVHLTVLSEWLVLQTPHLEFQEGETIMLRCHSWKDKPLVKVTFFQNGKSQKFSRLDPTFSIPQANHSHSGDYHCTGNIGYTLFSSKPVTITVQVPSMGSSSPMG
The experiment in a line: SPR (BIACORE); KD of SG1 divided by KD of the variant. On the procedure: (§1) The kinetic analysis of interactions between these antibodies and FcγR was carried out using BIACORE® T200 or BIACORE® 4000 (GE Healthcare). HBS-EP+ (GE Healthcare) was used as the running buffer, and the measurement temperature was set to 25° C. A chip produced by immobilizing Protein A. Protein A/G or mouse anti-human IgG kappa light chain (BD Biosciences) onto a Series S Sensor Chip CM4 or CM5 (GE Healthcare) by the amine-coupling method was used. […] After the measurement, the antibody captured on the chip was washed off by allowing reaction with 10 mM glycine-HCl, pH1.5 and 25 mM NaOH so that the chip was regenerated and used repeatedly. The sensorgrams obtained as measurement results were analyzed by the 1:1 Langmuir binding model using the BIACORE® Evaluation Software to calculate the binding rate constant ka (L/mol/s) and dissociation rate constant kd (l/s), and the dissociation constant KD (mol/L) was calculated from these values. […] Regarding such interactions, KD values were calculated using the following 1:1 binding model described in BIACORE® T100 Software Handbook BR1006-48 Edition AE.
(§2) Furthermore, the substitutions used in Example 29 for improving antibody half-life and reducing binding to rheumatoid factor were introduced into human FcγRIIb-enhanced Fc variants and their affinity against human FcγRs were analyzed (Table 29). In this SPR analysis, all the data were obtained using mouse anti-human IgG kappa light chain for capturing the antibodies of interest.
Background: Surface plasmon resonance follows binding to a sensor surface in real time, without labels.

For assay [2], the target named is T2, human FcγRIIIaV extracellular domain, C-terminal His-tag (human, UniProt P08637 17-208).
T2 construct: Soluble extracellular domain expressed in FreeStyle 293 cells; also called FcgRIIIaV; not shown: His-tag added to the C-terminus
T2 sequence (P08637 17-208 F176V): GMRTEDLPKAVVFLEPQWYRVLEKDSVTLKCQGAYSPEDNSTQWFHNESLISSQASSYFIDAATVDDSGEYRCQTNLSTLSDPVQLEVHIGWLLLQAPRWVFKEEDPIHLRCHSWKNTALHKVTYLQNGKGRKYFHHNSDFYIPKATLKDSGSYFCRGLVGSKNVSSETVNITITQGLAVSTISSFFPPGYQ
The description is as above. On the procedure: as §1, §2

In assay [3] the target is T3, human FcγRIIb extracellular domain, C-terminal His-tag (human, UniProt P31994 43-217).
T3 construct: Soluble extracellular domain expressed in FreeStyle 293 cells; also called FcgRIIb; not shown: His-tag added to the C-terminus
T3 sequence: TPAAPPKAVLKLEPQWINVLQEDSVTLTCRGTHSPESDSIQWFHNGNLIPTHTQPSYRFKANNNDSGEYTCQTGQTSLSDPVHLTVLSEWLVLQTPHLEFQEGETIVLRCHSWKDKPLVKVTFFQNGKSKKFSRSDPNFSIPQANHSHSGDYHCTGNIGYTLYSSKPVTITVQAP
The assay is described as above. How it is done:
as §1, §2

For assay [4], the target named is T4, human FcγRIIaH extracellular domain, C-terminal His-tag (human, UniProt P12318 34-217).
T4 construct: Soluble extracellular domain expressed in FreeStyle 293 cells; also called FcgRIIaH; human FcγRIIa (type H); not shown: His-tag added to the C-terminus
T4 sequence: T1 chain with R134H
The description is as above. On the procedure: as §1, §2

Assay [5] concerns the target T1, human FcγRIIaR extracellular domain, …. Briefly: SPR (BIACORE), antibody captured by mouse anti-human IgG kappa light chain, FcgR extracellular domain as analyte, 25 C. How it is done: as §1, §2
For assay [6], the target named is T2, human FcγRIIIaV extracellular domain, …. The description is as above. On the procedure: as §1, §2
In assay [7] the target is T3, human FcγRIIb extracellular domain, …. Described as above. On the procedure: as §1, §2
Assay [8] concerns the target T4, human FcγRIIaH extracellular domain, …. Described as above. On the procedure: as §1, §2

B1: MS103240H795-TT69/M103202L1045-SK1 (antibody)
heavy: QVQLVESGGGLVQPGGSLRLSCAVSGIDLSHDDISWVRQAPGKGLEWVSIISYAGSTYYASWAKGRLTISKDTSKNQVVLTMTNMDPVDTATYYCARGVPAYSHGGDLWGQGTLVTVSSASTKGPSVFPLAPSSKSTSGGTAALGCLVKDYFPEPVTVSWNSGALTSGVHTFPAVLQSSGLYSLSSVVTVPSSSLGTQTYICNVNHKPSNTKVDKKVEPKSCDKTHTCPPCPAPELLGGDSVFLFPPKPKDVLMISRTPEVTCVVVDVSHEDPEVKFNWYVDGVEVHNAKTKPREEQYNSTYRVVSVLPVLHRDWLNGKEYKCKVSNKALPKPIEKTISKAKGQPREPQVYTLPPSREEMTKNQVSLTCLVKGFYPSDIAVEWESNGQPENNYKTTPPVLDSDGSFFLYSKLTVKKSRWQQGNVFSCSVLHEALHAHTTRKELSLSP
light: DIVMTQSPATLSLSPGERATLSCTTSQSVYHENWLSWFQQKPGQPPKLLIYWASTLAYGVPSRFSGSGSGTDFTLTISSLQPEDAATYYCAGGYGGGRYAFGQGTKVEIKRTVAAPSVFIFPPSDEQLKSGTASVVCLLNNFYPREAKVQWKVDNALQSGNSQESVTEQDSKDSTYSLSSTLTLSKADYEKHKVYACEVTHQGLSSPVTKSFNRGEC
notes: copies: 2 + 2
In the case of B1, the “KD fold for humanFcgRs (SG1 = 1)” value was 0.04 fold in assay [1], 0.001 fold in assay [2], 4.3 fold in assay [3] and 0.008 fold in assay [4]. The Kd came to 34 µM in assay [5], 530 µM in assay [6], 1.1 µM in assay [7] and 130 µM in assay [8].

B2: MS103240H795-TT91/M103202L1045-SK1 (antibody)
heavy: B1 heavy with L236Y, V266I, P345R, K415D
light: B1 light
As to B2, the “KD fold for humanFcgRs (SG1 = 1)” value is 0.04 fold in assay [1], 0.002 fold in assay [2], 14.7 fold in assay [3] and 0.021 fold in assay [4]. Moreover, the Kd was 30 µM in assay [5], 450 µM in assay [6], 0.32 µM in assay [7] and 46 µM in assay [8].

B3: MS103240H795-TT93/M103202L1045-SK1 (antibody)
heavy: B1 heavy with L236Y, V266I
light: B1 light
notes: copies: 2 + 2
For B3, the “KD fold for humanFcgRs (SG1 = 1)” value worked out at 0.05 fold in assay [1], 0.002 fold in assay [2], 15.2 fold in assay [3] and 0.019 fold in assay [4]. For the same molecule, the Kd is 24 µM in assay [5], 470 µM in assay [6], 0.31 µM in assay [7] and 52 µM in assay [8].

B4: MS103240H795-TT71/M103202L1045-SK1 (antibody)
heavy: B1 heavy with V266I, P345R, K415D
light: B1 light
With B4, the “KD fold for humanFcgRs (SG1 = 1)” value in assay [1] stood at 0.04 fold; in assay [2] it was 0.002 fold; in assay [3] it was 11.2 fold; in assay [4], 0.01 fold. For the same molecule, the Kd stood at 27 µM in assay [5], 400 µM in assay [6], 0.42 µM in assay [7] and 96 µM in assay [8].

B5: MS103240H795-TT72/M103202L1045-SK1 (antibody)
heavy: B1 heavy with V266I, L430M, T438Y
light: B1 light
notes: copies: 2 + 2
Consider B5, for which the “KD fold for humanFcgRs (SG1 = 1)” value in assay [1] is 0.05 fold; in assay [2] it was 0.001 fold; in assay [3], 11.8 fold; in assay [4], 0.012 fold. Besides, the Kd in assay [5] stood at 24 µM; in assay [6], 500 µM; in assay [7], 0.4 µM; in assay [8] it was 79 µM.

B6: MS103240H795-TT90/M103202L1045-SK1 (antibody)
heavy: B1 heavy with L236Y, V266I, P345R, K415D, L430M, T438Y
light: B1 light
Turning to B6, the “KD fold for humanFcgRs (SG1 = 1)” value was 0.05 fold in assay [1], 0.002 fold in assay [2], 15.7 fold in assay [3] and 0.033 fold in assay [4]. Moreover, the Kd was 25 µM in assay [5], 360 µM in assay [6], 0.3 µM in assay [7] and 29 µM in assay [8].

B7: MS103240H795-TT70/M103202L1045-SK1 (antibody)
heavy: B1 heavy with V266I, P345R, K415D, L430M, T438Y
light: B1 light
Turning to B7, the “KD fold for humanFcgRs (SG1 = 1)” value amounted to 0.03 fold in assay [1], 0.002 fold in assay [2], 12.7 fold in assay [3] and 0.013 fold in assay [4]. Also, the Kd stood at 40 µM in assay [5], 390 µM in assay [6], 0.37 µM in assay [7] and 72 µM in assay [8].

B8: MS103240H795-TT92/M103202L1045-SK1 (antibody)
heavy: B1 heavy with L236Y, V266I, L430M, T438Y
light: B1 light
notes: copies: 2 + 2
With B8, the “KD fold for humanFcgRs (SG1 = 1)” value in assay [1] stood at 0.06 fold; in assay [2] it was 0.001 fold; in assay [3] it was 16.8 fold; in assay [4], 0.024 fold. For the same molecule, the Kd in assay [5] worked out at 20 µM; in assay [6], 490 µM; in assay [7], 0.28 µM; in assay [8] it was 40 µM.

B9: MS103240H795-TT73/M103202L1045-SK1 (antibody)
heavy: B1 heavy with V266I
light: B1 light
notes: copies: 2 + 2
Turning to B9, the “KD fold for humanFcgRs (SG1 = 1)” value in assay [1] is 0.06 fold; in assay [2] it was 0.001 fold; in assay [3], 11.2 fold; in assay [4], 0.013 fold. In addition, the Kd in assay [5] came to 19 µM; in assay [6], 550 µM; in assay [7], 0.42 µM; in assay [8], 74 µM.

The record behind these values is patent US20200317768A1 (published 2020).
